One test deals with H5 HA (Influenza A virus H5, assay strain not …, UniProt A5A5L7). Put plainly: ELISA + BLI. The following applies: both partners purified. For orientation: In an ELISA, binding on a coated surface is turned into a signal by an enzyme label.
Another test has as its target H7 A/Anhui/1/2013 HA (Influenza A virus A/Anhui/1/2013 (H7N9), UniProt A0A024E3P0). Put plainly: BLI; […], dissociation 5 min; 1% BSA in PBS; 30°C; […]. The following applies: both partners purified. On the technique in general: BLI is a label-free optical method that tracks binding on a fibre tip over time.

B1: 43_S0008 (antibody, V domains shown)
VH: QVQLVQSGAEVKKPGSSVKVSCKASGGTFRTFGISWVRQAPGQGLEWMGWIIPIIGTPNYAQKFQGRVIITADESSNTAYMELNSLKSEDTAVYYCAKEGRALLRYFDWLPLDAFDIWGQGTMVTVSS
VL: DIVLTQTPLSLPVSLGDQASISCRSSQSLVHSDGNTYLHWYLQKPGQSPKLLIYKVSNRFSGVPDRFSGSGSGTDFTLKISRVEAEDLGVYFCSQSTHVPPLTFGAGTKLELK
notes: also called mAb 43_S0008; IGHV1-69 + IGHD3-9 mAb 43_S0008; source: Expi293 cells, purified (protein A)
Turning to B1, the binding result with H5 HA and with H7 A/Anhui/1/2013 HA was “binds” each time.

Source of the values: article PMC11672684 (Cell Reports, 2024).
